Test results published in PMC5031558 (2016).

Legend:
Test in all cases: FP, FITC-Ahx peptide
[1] = target: T1, SPATA2_PIM (Homo sapiens (Human), UniProt Q9UM82)
T1 chain: DVDLYTDSEPR

[2] = target: T2, OTULIN_PIM (Homo sapiens (Human), UniProt Q96BN8)
T2 chain: AEHEEDMYRAADEIEKEKE

[3] = target: T3, p97_PIM (Homo sapiens (Human), UniProt P55072)
T3 chain: TEDNDDDLYG

B1: SPATA2_PUB (protein)
chain: MDTKFKDDLFRKYVQFHESKVDTTTSRQRPGSDECLRVAASTLLSLHKVDPFYRFRLIQFYEVVESSLRSLSSSSLRALHGAFSMLETVGINLFLYPWKKEFRSIKTYTGPFVYYVKSTLLEEDIRAILSCMGYTPELGTAYKLRELVETLQVKMVSFELFLAKVECEQMLEIHSQVKDKGYSELDIVSERKSSAEDVRGCSDALRRRAEGRE
[1]
  Kd: > 100 µM
[2]
  Kd: > 100 µM
[3]
  Kd: > 100 µM

B2: UBXN6_PUB (protein)
chain: STDPVAASIMKIYTFNKDQDRVKLGVDTIAKYLDNIHLHPEEEKYRKIKLQNKVFQERINCLEGTHEFFEAIGFQKVLLPAQDQEDPEEFYVLSETTLAQPQSLERHKEQLLAAE
[1]
  Kd: > 100 µM
[3]
  Kd: 27.1 µM

B3: HOIP_PUB (protein)
chain: MPGEEEERAFLVAREELASALRRDSGQAFSLEQLRPLLASSLPLAARYLQLDAARLVRCNAHGEPRNYLNTLSTALNILEKYGRNLLSPQRPRYWRGVKFNNPVFRSTVDAVQGGRDVLRLYGYTEEQPDGLSFPEGQEEPDEHQVATVTLEVLLLRTELSLLLQNTHPRQQALEQLLEDKVED
[1]
  Kd: 0.36 µM
[3]
  Kd: 10.2 µM

B4: PNGase_PUB (protein)
chain: GSASPAVAELCQNTPETFLEASKLLLTYADNILRNPNDEKYRSIRIGNTAFSTRLLPVRGAVECLFEMGFEEGETHLIFPKKASVEQLQKIRDLIAIER
[1]
  Kd: > 100 µM
[3]
  Kd: 2.1 µM
